The results in this text go back to PMC8689070.

Data set [1] deals with CovR-P (SP-TyK-phosphorylated) (Streptococcus pyogenes (M1T1 5448?; locus numbering MGAS5005)). The experiment in a line: EMSA.
The test system of data set [2] is CovR (non-phosphorylated) (Streptococcus pyogenes (M1T1 5448?; locus numbering MGAS5005)). Put plainly: EMSA. (In general: In EMSA bound probe runs differently from free probe, usually more slowly.)

In data set [1], PcovR registered a binding signal (fold vs non-phosphorylated CovR) of 4. The binding signal (fold of CovR-P binding) in data set [2] was 0.25.
